In publication PMC9426524:

System: CC(=O)C=O
Experiment: purified protein

Substance: E. coli YajL (Escherichia coli K-12)
- Km: 95 ± 18 µM
